Laboratory results published in patent US20130028978A1, “COMPOSITIONS AND METHODS FOR WOUND TREATMENT” (The Trustees of Columbia University in the City of New York, priority 2009, published 2013).
“Also recorded” adds a separate entry of the source.

Legend:
[1] = tested on: keloid cell; experiment: Keloid cell matrix synthesis; format: cell-based; conditions: 0, 50, 100, 200, 500 ng/ml
[2] = tested on: MSCs or MSC-derived fibroblasts (MSC-Fb); experiment: Myofibroblastic differentiation: αSMA expression by immunofluorescence and flow cytometry; format: cell-based, human
Protocol: MSC-derived fibroblasts were subjected to 5 ng/mL recombinant human TGFβ1 (R&D Systems, Minneapolis, Minn.) for 7 days. Undifferentiated hMSCs were treated with TGFβ1 as control. The expression of αSMA (Abcam, Cambridge, Mass.) was evaluated by immunofluorescence with rhodamine-phalloidin (Invitrogen, Carlsbad, Calif.). The number of αSMA+ cells was quantified by flow cytometry.
Briefly, cells were trypsinized, counted, resuspended into 1×10^6 cells/tube and fixed in […] formaldehyde. Following washing in 0.1% triton, the cells were incubated with αSMA primary antibody (Abcam, Cambridge, Mass.) for 30 min. Following centrifugation at 400 g for 5 min, the cells were incubated with fluorochrome-labeled secondary antibody (Abcam, Cambridge, Mass.) for 30 min in the dark, and resuspended in PBS supplemented with 3% BSA and 1% sodium azide. The samples were then analyzed using a multifunctional cell sorter (FACSAria™ II; BD Biosciences, San Jose, Calif.).

[3] = tested on: MSCs in collagen type I gel; experiment: Collagen gel contraction assay; format: cell-based, human; conditions: cell-populated collagen lattices, up to 7 days
Protocol: Neutralized collagen type I (2 mg/mL) (R&D Systems, Minneapolis, Minn.) was mixed thoroughly with 1×10^6/mL MSCs, MSC-Fb or αSMA+ cells. Cell-populated collagen solution was cast in 24-well plates for 1 hr at 37° C. to induce gelation. Upon 48-hr incubation, cell-populated collagen lattices were physically detached and allowed to float freely in medium. Up to the tested 7 days, the diameters of cell-populated collagen lattices were measured on digital images.

[4] = tested on: Human mesenchymal stem cells (hMSCs); experiment: Real-time quantitative PCR of MSC, fibroblastic, osteogenic, chondrogenic and myofibroblastic markers in CCN2/CTGF-treated hMSCs; format: cell-based
Protocol: (§1) Two to four weeks following CCN2/CTGF treatment, collagen type I and tenascin-C (Tn-C) were assayed by ELISA using commercial kits (Chondrex, Redmond, Wash. and IBL-America, Minneapolis, Minn.). Collagen type I matrix was lysed using 0.5 M acetic acid. Collagen deposition was visualized using Trichrome staining. Total RNA was isolated using Trizol from CCN2/CTGF-treated hMSCs. Following lysing with Trizol, samples were incubated for 5 min at RT. A total of 0.2 mL chloroform per mL Trizol was added, and followed by mixing and incubation for 3 min. After centrifugation at 12,000×g and 4° C. for 15 min, the upper phase was transferred into a new tube with 500 μL isopropanol added. After 10 min incubation and another centrifugation for 10 min at 12,000×g, the supernatant was discarded. The pellet was washed with 1 mL 75% ethanol and dried for 5-10 min. RNA samples were eluted in 50 μL DEPC-water, assessed for concentration and purity at 260 and 280 nm, and stored at −80° C. prior to reverse transcription. All RNA samples were reverse transcribed using a kit (Applied Biosystems, Foster City, Calif.). For mRNA quantification, real-time quantitative PCR reactions with the cDNA samples were performed using 7300 Real Time PCR System TaqMan® gene expression assays (Applied Biosystems, Foster City, Calif.). Commercially available primers and probes for human collagen types I and III, Tn-C, fibronectin (FN), matrix metallopeptidase-1 (MMP-1), fibroblastic specific protein 1 (FSP1), and vimentin were used (49, 50). Collagen type II (Col-II) and osteocalcin (OC) were selected as chondrogenic and osteogenic differentiation markers, respectively. CD29, CD44, CD105, CD106, CD117, BMPR, and sca1 were selected as MSC markers (30, 31). GAPDH was used as housekeeping gene.

[5] = tested on: calvarial suture mesenchymal cells; experiment: Fibroblastic differentiation of calvarial suture mesenchymal cells; format: cell-based, rat; conditions: 100 ng/mL, cells from p7 patent calvarial sutures
Protocol: To isolate calvarial mesenchymal cells, the posterior interfrontal suture excluding calvarial bones was carefully dissected from p7 rat calvaria using surgical scissors. The overlying periosteum and the underlying dura mater were removed under dissection microscope. The isolated suture mesenchyme was lysed using 2 mg/mL collagenase for 1 hr at 37° C., and filtered with a tissue strainer (Fisher, Pittsburgh, Pa.). After centrifugation, the collected cells were counted using trypan blue, plated at 20,000-30,000 cells per 6-well plate, and allowed to attach for about 5 days, followed by medium change every 2-3 days until confluence. P1 or P2 calvarial cells were induced for osteogenic, chondrogenic, adipogenic, and fibroblastic differentiations for 4 wks as described below.

[6] = tested on: Human mesenchymal stem cells (hMSCs); experiment: CCN2/CTGF fibroblastic differentiation of hMSCs: collagen deposition (Trichrome staining), collagen type I and tenascin-C ELISA; format: cell-based
Source text: Human mesenchymal stem cells (hMSCs) were isolated from fresh whole bone marrow samples of two anonymous adult donors (age range: 20-25 yrs old) (AllCells, Berkeley, Calif.). Mononucleated and adherent cells were purified by centrifugation through a density gradient (Ficoll-Paque) per our prior methods (30) and using negative selection following manufacturer's protocols (RosetteSep, StemCell Technologies, Vancouver, Canada) to remove hematopoietic cells and other differentiated cells.
Briefly, bone marrow was transferred to a 50 mL tube, followed by addition of […] of RosetteSep and incubation for 20 min. Then 15 mL PBS in 2% fetal bovine serum (FBS) and 1 mM ethylenediaminetetraacetic acid (EDTA) were added to a total volume of ˜30 mL. The sample was layered on 15 mL Ficoll-Paque and centrifuged 25 min at 3000×g. The entire layer of enriched cells was removed from Ficoll-Paque interface. The cocktail was centrifuged at 1000 rpm for 10 min. Collected cells were counted using trypan blue, plated at 0.5-1 million cells per 100 mm dish and allowed to attach for about 5 days, followed by regular medium change every two days. At 80-90% confluence, cells were trypsinized, centrifuged, resuspended in growth medium as passage 1 (P1) cells, and incubated in 5% CO2 at 37° C., with fresh medium changes every 3-4 days. Growth medium was defined as Dulbecco's Modified Eagle's Medium-Low Glucose (DMEM-LG; Sigma, St. Louis, Mo.), 1% antibiotic (1× Antibiotic-Antimycotic, including […] Penicillin G sodium, 10 mg/mL Streptomycin sulfate and 0.25 μg/mL amphotericine B) (Gibco, Invitrogen, Carlsbad, Calif.) and 10% Fetal Bovine Serum (FBS; Atlanta Biologicals, Norcross, Ga.).
P3 or P4 hMSCs were culture-expanded in monolayer (˜5,000 cells/well) in 12-well plates. At 80-90% confluence, hMSCs were culture-supplemented with 0, 10, 50 or 100 ng/mL recombinant human connective tissue growth factor (CTGF) (BioVendor, Candler, N.C.) and 50 μg/mL ascorbic acid (Sigma), with conditioned medium change every third day. […] Accordingly, 100 ng/mL CCN2/CTGF was selected for fibroblastic differentiation for in vitro experiments.
as §1

[7] = tested on: CCN2/CTGF-treated MSCs (MSC-Fb); experiment: Osteogenic, chondrogenic and adipogenic differentiation of CCN2/CTGF-treated MSCs (von Kossa, Alizarin Red, Safranin O, Oil-Red O); format: cell-based, human
Protocol: Chondrogenic medium was supplemented with 10 ng/mL transforming growth factor β3 (TGFβ3) (R&D Systems, Minneapolis, Minn.), whereas osteogenic medium was supplemented with 100 nM dexamethasone, 10 mM β-glycerophosphate, and 0.05 mM ascorbic acid-2-phosphate (Sigma) per our prior methods (31, 51). At Days 14 and 28, von Kossa staining and calcium assay was performed to evaluate osteogenic differentiation, whereas safranin O (Saf-O) straining and glycosaminoglycan (GAG) assays were performed to evaluate chondrogenic differentiation (Blyscan™, Biocolor, UK).
Osteogenic and chondrogenic medium were prepared as described above. Adipogenic medium contained […], 0.5 mM isobutylmethylxanthine, and […] per our prior methods (31, 52, 53). In 4 wks, Alizarin Red, Saf-O, and Oil-Red O staining were performed.

[8] = tested on: calvarial suture explants; experiment: Ex vivo modulation of calvarial morphogenesis in organ culture; parameters: species or system Sprague-Dawley rats
Protocol: Calvarial explants, including frontal and parietal bones with intervening interfrontal, coronal and sagittal sutures were harvested with intact dura mater from p10 male Sprague-Dawley rats (Harlan, Indianapolis, Ind.). Isolated calvaria were placed in 12-well tissue culture plates with serum-free medium supplemented with 0 or 50 ng/mL recombinant human CCN2/CTGF (35), with medium change every 2 days. The CCN2/CTGF concentration was determined (data not shown). Five to 25 days following CCN2/CTGF treatment, Tn-C contents in supernatant were assayed using ELISA. Explant-cultured calvarial sutures were sectioned sagittally for H&E staining and immunohistochemistry. Calvarial sutures were scanned with pCT (vivaCT 40; Scanco, Southeastern, Pa.) to measure suture width.

[9] = 2 and 4 wks of CCN2/CTGF treatment
[10] = 2 and 4 wks, vs MSCs without CCN2/CTGF

COC(=O)[C@@]1(O)C[C@H]2O[C@]1(C)n1c3ccccc3c3c4c(c5c6ccccc6n2c5c31)C(=O)NC4 [K252A]
keloid cell matrix synthesis [1]: inhibits keloid cell matrix synthesis

TGFβ1: recombinant human TGFβ1 (R&D Systems), a known stimulant for myofibroblast phenotype
αSMA expression (immunofluorescence) ([2]; 5 ng/mL TGFβ1 on CCN2/CTGF-treated MSCs / MSC-derived fibroblastic cells): readily expressed αSMA+ microfilaments
cells that gained αSMA phenotype (flow cytometry) ([2]; TGFβ1 stimulation of CCN2/CTGF-treated MSCs (MSC-Fb)): 31.9%
cells that gained αSMA phenotype (flow cytometry) ([2]; TGFβ1 stimulation of undifferentiated MSCs without prior CCN2/CTGF treatment): 1.8%
contraction of collagen gel [3]: moderate contraction

B1: CCN2/CTGF: recombinant human connective tissue growth factor (BioVendor); 36-38 kDa cysteine-rich protein of the CCN family; SEQ ID NO: 1 (protein, listed as Homo sapiens)
chain: MTAASMGPVRVAFVVLLALCSRPAVGQNCSGPCRCPDEPAPRCPAGVSLVLDGCGCCRVCAKQLGELCTERDPCDPHKGLFCDFGSPANRKIGVCTAKDGAPCIFGGTVYRSGESFQSSCKYQCTCLDGAVGCMPLCSMDVRLPSPDCPFPRRVKLPGKCCEEWVCDEPKDQTVVGPALAAYRLEDTFGPDPTMIRANCLVQTTEWSACSKTCGMGISTRVTNDNASCRLEKQSRLCMVRPCEADLEENIKKGKKCIRTPKISKPIKFELSGCTSMKTYRAKFCGVCTDGRCCTPHRTTTLPVEFKCPDGEVMKKNMMFIKTCACHYNCPGDNDIFESLYYRKMYGDMA
αSMA expression (flow cytometry) ([2]; CCN2/CTGF-treated MSCs (MSC-Fb), no TGFβ1): general absence of αSMA; also recorded: absence of αSMA expression
αSMA expression (immunofluorescence) ([2]; CCN2/CTGF-treated MSCs, no TGFβ1): did not express αSMA; also recorded: minimal
contraction of collagen gel [3]: moderate contraction
MSC stemness markers (CD29, CD44, CD105, CD106, CD117, BMPR, Sca1) [4, 9]: steady decreases; also recorded: gradually attenuated
fibroblastic mRNA markers (collagen types I and III, Tn-C, fibronectin, MMP-1, FSP1, vimentin) [4, 9]: concomitant increases; also recorded: gradually increased
chondrogenic marker collagen type II expression ([4]; CCN2/CTGF-treated MSCs): undetectable
myofibroblastic marker αSMA expression (RT-PCR) ([4]; CCN2/CTGF-treated MSCs): αSMA negative; also recorded: undetectable
osteogenic marker osteopontin expression ([4]; CCN2/CTGF-treated MSCs): undetectable; also recorded: minimally expressed
differentiation into fibroblast-like cells (Trichrome) [5]: readily differentiated into fibroblast-like cells that are highly Trichrome positive
collagen deposition with dose (Goldner's Trichrome staining) ([6]; 0, 10, 50 or 100 ng/mL, 4 wks): increased with increasing CCN2/CTGF doses
collagen synthesis ([6]; 10 ng/mL): sufficient to stimulate collagen synthesis
collagen synthesis ([6]; 50 ng/mL and 100 ng/mL, compared with 10 ng/mL): apparently more potent
collagen synthesis (Trichrome staining) ([6]; 100 ng/mL, 4 wks, vs MSCs without CCN2/CTGF): induced remarkable collagen synthesis; also recorded: prompted substantial collagen synthesis
collagen type I content (ELISA) [6, 10]: significantly greater; also recorded: significantly higher
tenascin-C content (ELISA) [6, 10]: significantly greater; also recorded: significantly higher
Safranin O staining ([7]; CCN2/CTGF-treated MSCs): negative
Von Kossa staining ([7]; CCN2/CTGF-treated MSCs): negative
ability to differentiate into osteogenic, chondrogenic and adipogenic cells ([7]; after 4 wk CCN2/CTGF stimulation (100 ng/mL), vs CCN2/CTGF-free MSCs): diminished ability to differentiate; also recorded: minimal capacity to further differentiate
rescue of calvarial suture from ectopic mineralization ([8]; 50 ng/mL to p10 explant for 25 days): rescued the calvarial suture from undergoing ectopic mineralization
rescue of calvarial suture from synostosis ([8]; 100 ng/mL, ex vivo culture to p35): rescued calvarial suture from undergoing synostosis
FSP1 and vimentin expression in calvarial suture ([8]; ex vivo CCN2/CTGF-treated suture): expressed
suture width (μCT) ([8]; p35, vs without CCN2/CTGF): significantly greater; also recorded: significantly wider
Tn-C (tenascin C) content of sutures ([8]; vs CCN2/CTGF-free sutures): significantly greater; also recorded: significantly more
